Our source for the OD450 values is patent US20250320312A1 (OXITOPE PHARMA B V, published 2025).

Experiment in all cases: scFv ELISA
Test [1] concerns the target T1, Peptide 4: Biotin-AGGGGSGGGGSGGGGSAAA-Tyr-acid (N-terminal biotin; C-terminal acid).
T1 construct: control peptide without PC
T1 peptide: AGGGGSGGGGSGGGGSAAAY
The procedure: (§1) For ELISA analysis of scFv binding, 96-well polystyrene plates were coated with Peptide 1, 4, 5, 8 or 100 μL BSA (10 μg/mL) in PBS at 4° C. overnight. Plates were washed three times with PBS-Tween and blocked with 100 μL 1% BSA-TBS for 1 hour at room temperature. 96-well streptavidin coated plates were coated with 100 μL biotinylated PC-peptides (1 μg/mL) in PBS for 1 hour at room temperature.
(§2) All plates were washed three times with PBS-Tween before 40 μL aliquots of PPE were added to assay plates along with 50 μL 10% BSA, and plates were incubated for 1 hour at room temperature. After washing, […] HRP conjugated anti-V5 in 5% BSA was added, and plates were incubated at room temperature for 30 mins. Plates were washed and 100 μL TMB substrate was added. Color was left to develop at room temperature before the reaction was stopped with 100 μL 1N HCl. The amount of scFv bound to each well was quantitated from absorbance measurement at 450 nm (OD450).

Test [2] concerns the target T2, Peptide 8: Biotin-AEAAAKEAAAKEAAAKEAAAKAAA-Tyr-acid (N-terminal biotin; C-terminal acid).
T2 construct: control peptide without PC
T2 peptide: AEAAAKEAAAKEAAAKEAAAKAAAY
The procedure:
as §1, §2

Test [3] has as its target Peptide 5: Biotin-…-[Tyr(PC)]-acid.
Test [4] has as its target Peptide 1: Biotin-…-[Tyr(PC)]-acid.
The next test concerns the target BSA (UniProt P02769).

Sequence of BSA (P02769 25-607 limits assumed): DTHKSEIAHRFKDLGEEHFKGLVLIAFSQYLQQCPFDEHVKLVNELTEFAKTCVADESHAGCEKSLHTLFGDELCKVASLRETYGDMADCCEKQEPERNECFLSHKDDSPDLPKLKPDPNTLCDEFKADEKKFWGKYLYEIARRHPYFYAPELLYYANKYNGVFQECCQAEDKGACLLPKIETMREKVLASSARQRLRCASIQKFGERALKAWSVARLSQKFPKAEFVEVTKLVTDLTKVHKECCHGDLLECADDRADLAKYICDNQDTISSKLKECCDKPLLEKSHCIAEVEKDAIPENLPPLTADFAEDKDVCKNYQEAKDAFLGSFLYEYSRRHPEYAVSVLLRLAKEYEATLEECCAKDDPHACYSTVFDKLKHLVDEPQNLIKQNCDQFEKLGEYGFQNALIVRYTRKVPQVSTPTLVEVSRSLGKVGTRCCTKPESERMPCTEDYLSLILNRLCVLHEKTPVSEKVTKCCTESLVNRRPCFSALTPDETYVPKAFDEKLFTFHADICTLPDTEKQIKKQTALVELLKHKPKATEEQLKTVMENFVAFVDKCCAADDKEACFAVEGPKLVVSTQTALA

B1: PcOxP_DB01_B07 (scFv, V domains shown)
VH: EVQLLESGGGLVQPGGSLRLSCAASGFTFSDYYMEWVRQAPGKGLEWVAASRNKANDYTTEYADSVKGRFTISRDNSKNTLYLQMNSLRAEDTAVYYCARDYYGSSYWYFDVWGQGTLVTVSS
VL: DIQMTQSPSSLSASVGDRVTITCTASESLYSSKHKVHYLAWYQQKPGKAPKLLIYGASNRYIGVPSRFSGSGSGTDFTLTISSLQPEDFATYYCAQFYSYPLTFGGGTKVEIK
notes: scFv in periplasmic extract
Regarding B1, the OD450 in test [1] is 0.06 OD450; in test [2], 0.05 OD450; in test [3], 1.36 OD450; in test [4], 1.07 OD450; with BSA it was 0.11 OD450.

B2: PcOxP_DB01_B01 (scFv, V domains shown)
VH: EVQLLESGGGLVQPGGSLRLSCAASGFTFSDQYIEWVRQAPGKGLEWVAASRNKANDYTTEYADSVKGRFTISRDNSKNTLYLQMNSLRAEDTAVYYCARDYLGSSYWYFDVWGQGTLVTVSS
VL: DIQMTQSPSSLSASVGDRVTITCTASESLYSSKHKVHYLAWYQQKPGKAPKLLIYGASHRYIGVPSRFSGSGSGTDFTLTISSLQPEDFATYYCAQFYAYPLTFGGGTKVEIK
notes: scFv in periplasmic extract
For B2, the OD450 in test [1] was determined as 0.07 OD450; in test [2], 0.05 OD450; in test [3], 0.9 OD450; in test [4], 0.87 OD450; with BSA, 0.1 OD450.

B3: PcOxP_DB01_A12 (scFv, V domains shown)
VH: EVQLLESGGGLVQPGGSLRLSCAASGFGFSDFYMEWVRQAPGKGLEWVAASRNKWNDYTTEYADSVKGRFTISRDNSKNTLYLQMNSLRAEDTAVYYCARDYYGSSYWYYDVWGQGTLVTVSS
VL: DIQMTQSPSSLSASVGDRVTITCTASESLYSSKHKVHYLAWYQQKPGKAPKLLIYGASNREIGVPSRFSGSGSGTDFTLTISSLQPEDFATYYCQQFYSYPLTFGGGTKVEIK
notes: scFv in periplasmic extract
With B3, the OD450 in test [1] worked out at 0.06 OD450; in test [2] it was 0.05 OD450; in test [3], 1.04 OD450; in test [4] it was 0.29 OD450; with BSA, 0.09 OD450.

B4: PcOxP_DB01_B11 (scFv, V domains shown)
VH: EVQLLESGGGLVQPGGSLRLSCAASGFTFEDFYMEWVRQAPGKGLEWVAASRNKANDYTTEYADSVKGRFTISRDNSKNTLYLQMNSLRAEDTAVYYCARDYFGSSYWYFDVWGQGTLVTVSS
VL: DIQMTQSPSSLSASVGDRVTITCTASESLYSSKHKVHYLAWYQQKPGKAPKLLIYGASNRYHGVPSRFSGSGSGTDFTLTISSLQPEDFATYYCAQFYSYPLTFGGGTKVEIK
notes: scFv in periplasmic extract
For the molecule B4, the OD450 in test [1] is 0.05 OD450; in test [2] it was 0.04 OD450; in test [3] it was 1.32 OD450; in test [4], 1.11 OD450; with BSA, 0.09 OD450.

B5: PcOxP_DB01_C06 (scFv, V domains shown)
VH: EVQLLESGGGLVQPGGSLRLSCAASGFEFSDNYMEWVRQAPGKGLEWVAASRNKANDYTTEYADSVKGRFTISRDNSKNTLYLQMNSLRAEDTAVYYCARDYYGSSYWYFDVWGQGTLVTVSS
VL: DIQMTQSPSSLSASVGDRVTITCTASESLYSSKHKVHYLAWYQQKPGKAPKLLIYGASNRFIGVPSRFSGSGSGTDFTLTISSLQPEDFATYYCAQFYYYPLTFGGGTKVEIK
notes: scFv in periplasmic extract
As to B5, the OD450 in test [1] came to 0.05 OD450; in test [2], 0.05 OD450; in test [3], 1.31 OD450; in test [4], 1.18 OD450; in the test with BSA, 0.08 OD450.

B6: PcOxP_DB01_B09 (scFv, V domains shown)
VH: EVQLLESGGGLVQPGGSLRLSCAASGFTFSDYYMEWVRQAPGKGLEWVAASRNKANDYTTEYADSVKGRFTISRDNSKNTLYLQMNSLRAEDTAVYYCARDYYGSSYWYFDVWGQGTLVTVSS
VL: DIQMTQSPSSLSASVGDRVTITCTASESLYSSKHKVHYLAWYQQKPGKAPKLLIYGASNRYTGVPSRFSGSGSGTDFTLTISSLQPEDFATYYCAQFYHYPLTFGGGTKVEIK
notes: scFv in periplasmic extract
As to B6, the OD450 came out at 0.05 OD450 in test [1]; 0.05 OD450 in test [2]; 1.42 OD450 in test [3]; 1 OD450 in test [4]; 0.1 OD450 with BSA.

B7: PcOxP_DB01_B08 (scFv, V domains shown)
VH: EVQLLESGGGLVQPGGSLRLSCAASGFTFSDSYMEWVRQAPGKGLEWVAASRNKANDYTTSYADSVKGRFTISRDNSKNTLYLQMNSLRAEDTAVYYCARDYYGSSYWYFDVWGQGTLVTVSS
VL: DIQMTQSPSSLSASVGDRVTITCTASESLYSSKHKVHYLAWYQQKPGKAPKLLIYGASNRYIGVPSRFSGSGSGTDFTLTISSLQPEDFATYYCAQFYSYPLTFGGGTKVEIK
notes: scFv in periplasmic extract
In the case of B7, the OD450 came out at 0.06 OD450 in test [1]; 0.05 OD450 in test [2]; 0.89 OD450 in test [3]; 0.41 OD450 in test [4]; 0.1 OD450 in the test with BSA.

B8: PcOxP_DB01_C04 (scFv, V domains shown)
VH: EVQLLESGGGLVQPGGSLRLSCAASGFQFSDFYMEWVRQAPGKGLEWVAASRNKANDYTTEYADSVKGRFTISRDNSKNTLYLQMNSLRAEDTAVYYCARDYYGSSYWYFDVWGQGTLVTVSS
VL: DIQMTQSPSSLSASVGDRVTITCTASESLYSSKHKVHYLAWYQQKPGKAPKLLIYGASNRYIGVPSRFSGSGSGTDFTLTISSLQPEDFATYYCAQFYYYPLTFGGGTKVEIK
notes: scFv in periplasmic extract
Take B8: the OD450 in test [1] was found to be 0.05 OD450; in test [2] it was 0.05 OD450; in test [3], 1.42 OD450; in test [4], 1.38 OD450; with BSA, 0.08 OD450.

B9: PcOxP_DB01_C01 (scFv, V domains shown)
VH: EVQLLESGGGLVQPGGSLRLSCAASGFTFSDFYMEWVRQAPGKGLEWVAASRNKANDYTTEYADSVKGRFTISRDNSKNTLYLQMNSLRAEDTAVYYCARDYYGSSYWYFDVWGQGTLVTVSS
VL: DIQMTQSPSSLSASVGDRVTITCVASESLYSSKHKVHYLAWYQQKPGKAPKLLIYGASNRYIGVPSRFSGSGSGTDFTLTISSLQPEDFATYYCAQFYSYPLTFGGGTKVEIK
notes: scFv in periplasmic extract
Turning to B9, the OD450 in test [1] turned out to be 0.06 OD450; in test [2], 0.05 OD450; in test [3], 1.13 OD450; in test [4], 0.71 OD450; with BSA, 0.11 OD450.

B10: PcOxP_DB01_C05 (scFv, V domains shown)
VH: EVQLLESGGGLVQPGGSLRLSCAASGFTFSDGYMEWVRQAPGKGLEWVAASRNKANDYTTEYADSVKGRFTISRDNSKNTLYLQMNSLRAEDTAVYYCARDYYGSSYWYFDVWGQGTLVTVSS
VL: DIQMTQSPSSLSASVGDRVTITCTASESLYSSKHKVHYLAWYQQKPGKAPKLLIYGSSNRYIGVPSRFSGSGSGTDFTLTISSLQPEDFATYYCAQFYAYPLTFGGGTKVEIK
notes: scFv in periplasmic extract
For B10, the OD450 in test [1] was determined as 0.06 OD450; in test [2], 0.06 OD450; in test [3], 1.11 OD450; in test [4], 0.79 OD450; with BSA it was 0.11 OD450.

B11: PcOxP_DB01_B04 (scFv, V domains shown)
VH: EVQLLESGGGLVQPGGSLRLSCAASGFTFSDGYMEWVRQAPGKGLEWVAASRNKANDYTTEYADSVKGRFTISRDNSKNTLYLQMNSLRAEDTAVYYCARDYYGSSYWYFDVWGQGTLVTVSS
VL: DIQMTQSPSSLSASVGDRVTITCTASESLYSSKHKVHYLAWYQQKPGKAPKLLIYGASNRYIGVPSRFSGSGSGTDFTLTISSLQPEDFATYYCAQFYSYPLTFGGGTKVEIK
notes: scFv in periplasmic extract
In the case of B11, the OD450 came to 0.06 OD450 in test [1]; 0.05 OD450 in test [2]; 1.02 OD450 in test [3]; 0.57 OD450 in test [4]; 0.08 OD450 with BSA.

B12: PcOxP_DB01_B05 (scFv, V domains shown)
VH: EVQLLESGGGLVQPGGSLRLSCAASGFTASDFYMEWVRQAPGKGLEWVAASRNKWNDYTTEYADSVKGRFTISRDNSKNTLYLQMNSLRAEDTAVYYCARDYYGSSYWYFDVWGQGTLVTVSS
VL: DIQMTQSPSSLSASVGDRVTITCTASESLYSSKHKVHYLAWYQQKPGKAPKLLIYGASSLQIGVPSRFSGSGSGTDFTLTISSLQPEDFATYYCAQFYSYPLTFGGGTKVEIK
notes: scFv in periplasmic extract
On to B12, for which the OD450 turned out to be 0.05 OD450 in test [1]; 0.05 OD450 in test [2]; 0.74 OD450 in test [3]; 0.23 OD450 in test [4]; 0.1 OD450 with BSA.

B13: PcOxP_DB01_C03 (scFv, V domains shown)
VH: EVQLLESGGGLVQPGGSLRLSCAASGFTFSDQYMEWVRQAPGKGLEWVAASRNKANDYTTEYADSVKGRFTISRDNSKNTLYLQMNSLRAEDTAVYYCARDYYGSSYWYFDVWGQGTLVTVSS
VL: DIQMTQSPSSLSASVGDRVTITCTASESLYSSKHKVHYLAWYQQKPGKAPKLLIYGASNRYIGVPSRFSGSGSGTDFTLTISSLQPEDFATYYCAQFYQYPLTFGGGTKVEIK
notes: scFv in periplasmic extract
Consider B13, for which the OD450 in test [1] is 0.06 OD450; in test [2], 0.05 OD450; in test [3] it was 1.37 OD450; in test [4], 0.98 OD450; with BSA, 0.1 OD450.

B14: PcOxP_DB01_A06 (scFv, V domains shown)
VH: EVQLLESGGGLVQPGGSLRLSCAASGFTFSDYYMEWVRQAPGKGLEWVAASRNKANDYTTEYADSVKGRFTISRDNSKNTLYLQMNSLRAEDTAVYYCARDYYGSSYWYFDVWGQGTLVTVSS
VL: DIQMTQSPSSLSASVGDRVTITCTASESLYSSKHKVHYLAWYQQKPGKAPKLLIYGASNRYIGVPSRFSGSGSGTDFTLTISSLQPEDFATYYCAEFYSYPLTFGGGTKVEIK
notes: scFv in periplasmic extract
B14: the OD450 in test [1] was found to be 0.06 OD450; in test [2], 0.06 OD450; in test [3], 1.18 OD450; in test [4], 0.74 OD450; with BSA it was 0.1 OD450.
